This series has as its target Cre recombinase (Bacteriophage P1?) (UniProt P06956). Put plainly: cell_activity. Particulars: pCA36 + pBHGloxΔE1,3 in 293Cre4 cells; 15 in 293 cells, homologous recombination background only.
Chain of UniProt P06956 (P06956 whole entry): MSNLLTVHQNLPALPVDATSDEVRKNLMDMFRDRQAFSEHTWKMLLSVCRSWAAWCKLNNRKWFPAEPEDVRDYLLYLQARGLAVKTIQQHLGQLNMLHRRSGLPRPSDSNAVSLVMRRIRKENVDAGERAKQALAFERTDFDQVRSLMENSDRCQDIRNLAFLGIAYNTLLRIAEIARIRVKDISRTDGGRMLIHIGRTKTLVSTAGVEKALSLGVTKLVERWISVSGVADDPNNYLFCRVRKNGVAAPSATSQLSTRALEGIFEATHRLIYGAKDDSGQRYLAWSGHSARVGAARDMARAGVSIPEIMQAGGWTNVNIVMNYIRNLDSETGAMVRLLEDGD

Regarding shuttle plasmid pCA36 without loxP, the activity (total plaques in 6 dishes) amounted to 10.

The values are drawn from patent publication US20030165463.
